Measured values taken from US20220098635A1.
Like-named read-outs stand apart in the source and are kept apart here.

What was measured:
[1] = target: RGD peptide (cyclo(Arg-Gly-Asp-D-Phe-Cys)); experiment: method not stated
[2] = target: RGD peptide (cyclo(Arg-Gly-Asp-D-Phe-Cys)); experiment: cell-based or functional assay
[3] = target: RGD peptide (cyclo(Arg-Gly-Asp-D-Phe-Cys))
[4] = target: RGD peptide (cyclo(Arg-Gly-Asp-D-Phe-Cys)); remark: listed apart in the source
[5] = target: RGD peptide (cyclo(Arg-Gly-Asp-D-Phe-Cys)); experiment: STM junction, bare probe (NA), RGD peptide on substrate only, gap Z0 + 2 nm
[6] = target: RGD peptide (cyclo(Arg-Gly-Asp-D-Phe-Cys)); remark: listed apart in the source

Sequence of αVβ3 Integrin (receptor) (P06756 31-992): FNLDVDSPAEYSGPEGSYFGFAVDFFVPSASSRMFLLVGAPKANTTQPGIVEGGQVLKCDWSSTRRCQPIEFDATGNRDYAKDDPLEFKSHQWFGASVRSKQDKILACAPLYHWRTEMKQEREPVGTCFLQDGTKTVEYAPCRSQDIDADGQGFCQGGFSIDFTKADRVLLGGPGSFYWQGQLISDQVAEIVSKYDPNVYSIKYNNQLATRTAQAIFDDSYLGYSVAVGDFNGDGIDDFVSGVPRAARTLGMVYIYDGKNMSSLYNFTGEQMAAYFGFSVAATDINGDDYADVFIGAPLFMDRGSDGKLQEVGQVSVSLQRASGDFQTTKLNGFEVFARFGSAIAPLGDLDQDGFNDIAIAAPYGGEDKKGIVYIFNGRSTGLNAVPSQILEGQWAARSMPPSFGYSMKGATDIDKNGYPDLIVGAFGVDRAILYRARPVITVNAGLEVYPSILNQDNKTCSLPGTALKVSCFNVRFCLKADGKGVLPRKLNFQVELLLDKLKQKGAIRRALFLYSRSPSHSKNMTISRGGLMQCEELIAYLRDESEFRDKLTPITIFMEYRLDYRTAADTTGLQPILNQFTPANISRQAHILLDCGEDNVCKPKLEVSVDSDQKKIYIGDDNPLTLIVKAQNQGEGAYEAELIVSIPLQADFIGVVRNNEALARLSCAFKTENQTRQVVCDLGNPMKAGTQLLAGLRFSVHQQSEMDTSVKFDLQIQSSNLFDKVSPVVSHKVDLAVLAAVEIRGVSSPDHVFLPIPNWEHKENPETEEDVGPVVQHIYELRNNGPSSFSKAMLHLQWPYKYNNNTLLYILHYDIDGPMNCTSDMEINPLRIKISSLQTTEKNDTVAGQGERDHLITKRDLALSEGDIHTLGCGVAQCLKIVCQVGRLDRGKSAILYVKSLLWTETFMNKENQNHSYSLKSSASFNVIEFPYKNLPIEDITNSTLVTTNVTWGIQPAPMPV
Sequence of αVβ3 Integrin (receptor) (P05106 27-718, further chain): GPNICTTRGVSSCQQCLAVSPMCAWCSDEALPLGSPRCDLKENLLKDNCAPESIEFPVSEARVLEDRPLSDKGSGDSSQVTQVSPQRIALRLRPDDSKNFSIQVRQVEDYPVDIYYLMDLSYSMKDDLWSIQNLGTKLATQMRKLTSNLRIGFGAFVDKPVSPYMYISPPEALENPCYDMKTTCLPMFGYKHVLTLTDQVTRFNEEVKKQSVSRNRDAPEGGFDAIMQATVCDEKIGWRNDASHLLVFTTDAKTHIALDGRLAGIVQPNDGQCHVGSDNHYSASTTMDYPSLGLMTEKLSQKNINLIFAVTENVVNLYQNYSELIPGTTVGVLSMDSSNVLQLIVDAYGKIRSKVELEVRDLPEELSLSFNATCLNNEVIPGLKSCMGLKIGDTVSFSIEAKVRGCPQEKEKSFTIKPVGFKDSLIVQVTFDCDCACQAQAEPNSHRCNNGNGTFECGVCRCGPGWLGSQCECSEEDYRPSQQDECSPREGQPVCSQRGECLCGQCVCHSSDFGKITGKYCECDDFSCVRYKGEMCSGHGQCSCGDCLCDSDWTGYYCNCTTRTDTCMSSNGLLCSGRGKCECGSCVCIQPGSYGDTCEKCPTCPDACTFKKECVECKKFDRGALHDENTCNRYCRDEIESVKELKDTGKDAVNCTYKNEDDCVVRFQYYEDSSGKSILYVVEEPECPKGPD

αVβ3 Integrin (receptor)
Kd [1]: 10 nM | Peak Conductance (nS), Binding Mode NS-S [2]: 0.38 nS | Frequency with which sweeps yielded an IV curve [3]: 23.7% | Frequency with which sweeps yielded an IV curve [4]: 10.5% | Frequency with which sweeps yielded an IV curve [5]: 0% | Frequency with which sweeps yielded an IV curve [6]: 35.9%
